# Assay: yeast display, Sf9 membrane polyspecificity reagent, FACS + sequencing; frameworks hold sequencing errors
# How it was run: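 Galactose-induced (36–48 hours) yeast carrying a synthetic nanobody display library were exposed to 10% biotinylated, detergent-solubilized Sf9 membrane reagent at 4 °C for 1 hour. FACS followed streptavidin microbead enrichment, using low and high (top ~1%) gates for expression (anti-HA) and reagent binding (streptavidin). Colony PCR, MiSeq 2 × 250 sequencing and CDR-length filtering followed. Labels for polyreactivity reflect the gate of origin.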
row,Sequence,polyreactivity (PSR sort gate)
1,QVQRVESGGGLVQAGGSLRLSCAASGSLFYLYAMGWYRQAPGKERELVARITIRGGSTYYADSVKGRFTISRDNAKNTVYLQMNSLKPEDTAVYYCAARRPYGDYDYWGQGTQVTVSS,high polyreactivity
2,QVQLVESGGGLVQAGGSLRLSCAASGNTFEYNAMGWYRQAPGKEREFVAAIDFSDGSTYYADSVKGRFTISRDNAKNTVYLQMNSLKPEDTAVYYCAGDYYSYFGNYYYWGQGTQVTVSS,high polyreactivity
3,QVQLVESGGGLVQAGGSLRLSCAASGRIFYRYAMGWYRPAPGKERELVATITGRGGSTYYADSVKGRFTISRDNAKNTVYLQMNSLKPEDTAVYYCATTRSVSYPYDGSYYWGQGTQVTVSS,high polyreactivity
4,QVQLVESGGGLVQAGGSLRLSCAASGSIFGYYAMGWYRQAPGKERELVAAISYSGGSTYYADSVKGRFTISRDNAKNTVYVQMNSLKPEDTAVYYCAARYASTPYARFGYWGQGSQVTVSS,high polyreactivity
5,QVQLVESGGGLVQAGGSLRLSCAACGLTFDDYAMGWSRQAPGKERELVAAISKSGDGTYYADSVKGRFTISRDNAKNTVYLQMNSLKPEDTAVYYCNADAKYWGFVYWWFGEDNWGQGTQVPVSS,low polyreactivity
6,QVQLVESGGGLVQAGGSLRLTCAASGSIFNGNAMGWYRQAPGKERELVAAISNVGRTDYADSVKGRFTISRDNAKNTVYLQMNSLKPEDTAVYYCAAGVYSGYNRYFAPRSWFGYYYWGQGTQVTVSS,low polyreactivity
7,QVQLVESGGGLVQAGGSLRLSCAASGRISTFYAMGWYRQAPGKERELVAGIRWRGGSTYYADSVKGRFTISRDNAKNTVYLQMNSLKPEDTAVYYCNAVPRRRRYSRLGYWGQGTQVTVSS,high polyreactivity
8,QFQLVESGGGLVQAGGSLRLSCAASGFTFYYYAMGWYRQAPGKERELVAAISSSGSSTYYADSVKGRFTISRVNAKNTVYLQMNSLKREDTAVYYWNARRYEYLWGDYWGQGTQVTVSS,high polyreactivity
9,QVQLVESGGGLVQAGGSLRLSCAASGRIFGGYVMGWYRQAPGKEREFVAAISGRGTSTSYADSVKGRFTISRDNAKNTVYVQMNSLKPEDTAVYYCAARPKSDYSNGGNYWGQGTQVTVSS,high polyreactivity
10,QVQLVESCGGLVQAGGSLRLSCAASGSTFSYNAMGWYRQAPGKEREMVAAITYGGGSTYYADSVKGRFTISRDNAKNTVYLQMNSLKPEDTAVYYCAVEKYGRYRPYSYGYWGQGTQVTVSS,high polyreactivity
11,QVQLVESGGGLVQAGGSLRLSCAASGRTFYSNAMGWYRQAPGKERELVAAITFGGGSTYYADSVKGRFTISRDNAKNTVYVQMNSLKPEDTAVYYCAAEGYKYRFYYWGQGTQVTVSS,low polyreactivity
12,QVQHVESGGGLVQAGGSLRLSCAASGSIFIANAMGWYRQAPGKERELVAVINWGDGSTYADSVKGRFTISRDNAKNTVYLQMNSLKPEDTAVYYCNAPDEVNDVRYDYWGQGTQVTVSS,low polyreactivity
13,QVQLVESGGGLVEAGGSLRLSCAASGRIFTYYAMGWYRQAPGKERELVASISRSGGNTYYADSVKGRFTISRDNAKNTVYLQMNSLKPEDTAVYYCDAVYSRLDYWGQGTQVTVSS,high polyreactivity
14,QVQLVESGGGLVQAGGSLRLSCAASGRTFHHNTMGWYRQAPGKERELVAAISSGGSTNYADSVKGRFTISRDNAKNTVYLQMNSLKPEDTAVYYCNADGGFLQRTGYDYWGQGTQVTVSS,low polyreactivity
15,QVQLVESGGGLVQAGGSLRLSCAASGRTFDVYAMAWYRQAPGKERELVATISWRGTSTYYADSVKGRFTISRDNAKNTVYLQMNSLKPADTAVYYCAKDPQPDLYGSWGQGTQVTVSS,high polyreactivity
16,QVQLVESGGGLVQAGGSLRVSCAASGSIFKIYAMGWYRLAPGKERELVASITGSGGSTYYADSVKGRFTISRDNAKNTVYLQRNCLKPEDTAVYYCAAAVLGSSKSEVDPDRPEYYYWGQGTQVTVSS,low polyreactivity
17,QVKLVESAGGLVQAGGSLRLSCAASGSIFPYNVMGWYRQAPGKERELVAAITRRGGSTYYADSVKGRFTISRDNAKNTVYLQMNSLKPEDSAVYYCAAVPYPRGIGYDYWGQGTQVTVSS,high polyreactivity
18,QVQLVESGGGLVQAGGSLLLSCAASGSTFSFYAMGWYRQAPGKERELVAAIDSGGRTKYADSVKGRFTISRDNAKNTVYLQMNSLKPEDTAVYYCAAVFRGLWLYDYWGQGTQVTVSS,low polyreactivity
19,QVQLVESGGGLVQAGGSLRLSCAASGRTFRWYAMGWYRQAPGKETELVAAINPGGSTNYADSVKGRFTISRDNAKNTVYLQMNSLKPEDTAVYYCNAAGYDALTHNYYWGQCTQVTVSS,low polyreactivity
20,LVQVVESGGGLVQAGCSLRLSCAASGRTFGVYAMGWYRQAPGKEWELVASISRSGGSTYYADSLKGRFTISRDNAKNTVYLQMNSLIPEDTAVYYCAAVYKRGMDYWGQGTQVTVSS,high polyreactivity
21,QVQLQESGGGLVQAGASLRLSCAASGSIYDDTYMGSYRQAPGKERELVATIDSGSTTNYADSVKGRITISRDNEKNTVYLQMNSLKPEDSAVYYCAAADSHIDYFDYWGQGTQVTVSS,low polyreactivity
22,QVQLVESGGGLVQAGGSLRLSCAASGRIYIGNAMGWYRQAPGKERELVAAISKRGGSTYYADSVKGRFTISRDNAKNTVYLQMKSLKAEDTAVYYCIKESLYREFDYLGQGTQVTVSS,low polyreactivity

row,Sequence,polyreactivity (PSR sort gate)
1,QVQLVESGGGLVQAGGSLRLSCAASGNTFTWYTMGWYRQAPGKERELVAVITSDGSTYYADSVKGRFTISRDNAKNTVYLQMNSLKPEDTAGYYCNALSADWYPEEDFWGQGTQVTVSS,low polyreactivity
2,QVQLVESGGGLVQAGGSLRLSCAASGSTFNRNGMGWYRQAPGKERELVAAISRSTTSTYYADSVKGRFTISRDNAKNTVYLQMNSLKPEDTAVYYCATPHRYRVDYWGQGTQVTVSS,high polyreactivity
3,QVQLVESGGGLVQAGGSLRLSCAASGRIFYFYALGWYRQAPGKERELVAAIDSGGSTYYADSVKGRFTISRDNAKNTVYLQMNSLKPEDTAVYYCNADGFYSWLYDYWGQGTQVTVSS,low polyreactivity
4,QVQLVEAGGGFVQAGGSLRLSCAASGSIIVPYAMGWYRQPPGKESELVAAISSRGGRTYYADSVKGRFTISRENAMNSVYLQMNSLKPEDSAVYDCNKTGGSHIPRLEYWGQGTQVTVSS,low polyreactivity
5,QVQLVESVGGLDQAGGTLRLSCAASGSTFKYNGMGWYRQAPGKERELVAAISWRAGSTYADSVKGRFTISRDNAKNTVYLLMYSLKPEDTEVYYCAARLKYWGDYYYWGQGTQVTVSS,low polyreactivity
6,QVQLVESGGGLVQAGGSLRISCAASGRIFFTNAMGWYRQAPGKDRELVAAISKSGARTYYADSVKGRFTISRDNAKNTVYLQMNSLKPEDTAVYYCSEFYYWGQGTQVTVSS,high polyreactivity
7,QGQLVESGGGLVQAGGSLRLSCAASGNTFGKNAMGWYRQAPGKERELVAAIRSSGGSTYYADSVKGRFTISRDNAKNTVYLQMNSLKPEDSAVYYCNADVIRQTDGYDYWGQGTLVTVSS,high polyreactivity
8,QVQLVESGGGLVQAGGSLRLSCAASGFIFAYYAMGWYRQAPGKERELVAAITSSGGSTYYADSVKGRFTISRDNAKHTVYLQMNSLKPEDTAVYYCNAVPRHYKGYYWGQGTQVTVSS,high polyreactivity
9,QVQLVESGGGLVQAGGSLRLSCAASGRTFPSNVMGRYIQAHGKERELVAGITWRGGSTYYADSVKGRFTISRDNAKYTVYLQINSLKPEDTAVYYCAVRTQYRRYEYWGHGTQVTVSS,high polyreactivity
10,QVQLQESGCGLVQVGGSLRLSCAASGTTFIYGFLGWNRQAPGKERELVASINLGGFTNYADSVKGRFTISRDNAKNTVYLQMISLNPEDSAVFYCAAYVVTGQNYGYWGKGTQVTVSS,low polyreactivity
11,QVQLVESGGGLVQARGSLRLSCAASGGTFESYAMGWYRQAPGKERELVAAITYSGGSTYYADSVKGRFTISRDNAKNTVYLQMNSLKPEDTAVYYCAARPRFITYKRYYWGQGTQVTVSS,high polyreactivity
12,QVQLVESGGGLVQAGGSLRLSCAASGRTFRSNAMGWYRQAPGKERELVAAITRSGGNTYYADSVKGRFTISRDTAKNTVYLQMNSLKPEDTAVYYCADRYSNPWARVSGYDYWGQGTQVTVSS,high polyreactivity
13,QVQLVESGGGLVQAGGSLRLSCAASGSNFTAYAMGWYRQAPGKERELVAAITKSSVTYYADSVKGRFTISRDNAKNTVYLQMNSVKPEDTAVYYCAGYSPRPSDLYSPIAYYYWGQGTLVTVSS,low polyreactivity
14,QVQLVESGGGLVQAGGSLRLSCAASGRIDAYYAMGWYRQAPGKERELVAGISQRGSRTYYADSVKGRFTISRDNAKNTVYLQMNSLKPEDTAVYYCAARDRRSVTMDYWGQGTQVTVSS,high polyreactivity
15,QVQLQESGGGLVQAGGDLRLSCAASGNIFRDYIMGWNRQAPGKEREFVAGIDRGANTNYADSVKGRFTISRDNAKNTVYLQMNSLKPEDTAVYYCAVHTDIVPDFIYWGQGTQVTVSS,low polyreactivity
16,QVQLVESGGGLVQAGGSLRLICAASGSIFRYYAMGWYRQAPGKERELVATISWSGGGTYYADSVKGRFTISRHNAKNTVYLQMNSLKPEDTAVYYCAADYGEQYVYWGQGTQVTVSS,low polyreactivity
17,QVQLVESGGGLVQAGGSLRLTCAASGRIFLINPMGWYRQAPGKDRELVAGIRGRTGSTNYADSVKGRFTISRDNAKNTVYLQMNRLKPEDTAVYYCAARFSVQDGGPYAYDYWGQGTQVTVSS,low polyreactivity
18,QVQLVESGGGLVQAGGSLRLSCAASGRIFGTYTKGWYRQAPGKERELVAAITTGGITNYADSVKGRFTISRDNAKNTVYLQMKSLKPEDTAVYYCNARWDYGAYEYWGQGTQVTVSS,low polyreactivity
19,QVQLVESGGGLFQAGGSLRLSCAASGRISYGNAMGWYRQAPGKEMELVAAISGSGGSKYYADSVKGRFTISRDNAKNTVYLQMNSLKPEDTAVYYCAADSRKRQGYGYWGQGTQVTVSS,low polyreactivity
20,QVQLVESGGGLVQAGGSLRLSCAASGRTFKVYAMGWYRQAPGKERELVAAISDRGGSTYYADSVKGRFTISRDNAKNSVYLQMNSLKPEDTAVYYCSAEYARSTWRAYPELDYWGQGTQVTVSS,low polyreactivity
21,QVQLVESGGGLFQAGGSLSLSCAATGIIFRSYAMGWYRQAPGKEREMVAAITRSGGSTYADSVKGRFTISRDNAKNTVDLQMNSLKPEDTAVYYCAADRYSGWVYRRDYWGQGTQVTVSS,low polyreactivity

# — the nanobody polyreactivity screen of Harvey et al. (2022)
